This is an account of results in patent US20070249530A1.

In experiment [1] the target is Murine APRIL (K104-L241) thioredoxin fusion protein (murine) (UniProt Q9D777). As to the kind of experiment: competitive displacement ELISA on immobilized APRIL; unlabeled baculovirus BCMA varied, tracer biotinylated baculovirus BCMA.
Experiment [2] has the same target. As to the kind of experiment: competitive displacement ELISA on immobilized APRIL; unlabeled baculovirus BCMA varied, tracer biotinylated BCMA-Z.
For experiment [3] the target is unchanged. As to the kind of experiment: competitive displacement ELISA on immobilized APRIL; unbiotinylated BCMA-Fc varied, tracer biotinylated BCMA-Z.
Experiment [4] shares this target. As to the kind of experiment: competitive displacement ELISA; immobilized APRIL, tracer biotinylated BCMA-Z.
The target is the same in experiment [5]. As to the kind of experiment: SPR (BIAcore 3000), APRIL immobilized, 1:1 model.
The target is the same in experiment [6]. As to the kind of experiment: competition ELISA; immobilized APRIL, tracer biotinylated BCMA-Z.

Chain of BCMA-Fc (Q02223 5-51): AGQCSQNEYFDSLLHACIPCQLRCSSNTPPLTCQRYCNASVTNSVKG
Chain of BCMA ECD purified from baculovirus expression (Q02223 4-53): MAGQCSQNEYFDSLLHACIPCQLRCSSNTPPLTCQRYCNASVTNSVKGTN

For the substance “BCMA ECD purified from baculovirus expression (from UniProt Q02223 4-53) (receptor)”, the IC50 (read off the curve) in experiment [1] was found to be 20 nM; in experiment [2], 10 nM.

For “BCMA-Fc (from UniProt Q02223 5-51) (Fc fusion)”, the IC50 (read off the curve) in experiment [3] turned out to be 7 nM. Besides, the 50% inhibitory concentration (IC50) in experiment [4] was 5 nM. In experiment [5], this substance showed a Kd of 0.2 nM and an on-rate constant (kon) of 3.12e+06 M⁻¹ s⁻¹. Also, the concentration for half-maximal inhibition (IC50) in experiment [6] is 7 to 10 nM.
